According to patent US20250388936A1, “METHODS AND CELLS FOR THE PRODUCTION OF FLUORINATED COMPOUNDS” (priority 2022, published 2025):

B1: SalL^Stro: chlorinase from Salinispora tropica CNB-440, accession 2Q6L_A (protein, UniProt A4X3Q0 1-283, looked up)
Adenosyl-chloride synthase: MQHNLIAFLSDVGSADEAHALCKGVMYGVAPAATIVDITHDVAPFDVREGALFLADVPHSFPAHTVICAYVYPETGTATHTIAVRNEKGQLLVGPNNGLLSFALDASPAVECHEVLSPDVMNQPVTPTWYGKDIVAACAAHLAAGTDLAAVGPRIDPKQIVRLPYASASEVEGGIRGEVVRIDRAFGNVWTNIPTHLIGSMLQDGERLEVKIEALSDTVLELPFCKTFGEVDEGQPLLYLNSRGRLALGLNQSNFIEKWPVVPGDSITVSPRVPDSNLGPVLG
B2: FIA^PtaU1: fluorinase of Methanosaeta sp. PtaU1.Bin055, SEQ ID NO: 1, accession OPY51785.1 (protein, listed as Methanosaeta sp.)
chain: MLQNTKNEYKPRDGGGHRPIIGFMSDLGTEDDSVGICKGVMLGLCPDAVIVDISHSMTPWDIDQGSRLIVDLPKFFPNWTTFATTSYRETGTSARSVAIKLPSGHVYVAPNNGLLTRVIEDHGYVEAYEVTTVGAIPAEPEPTWFSRDMVAYPAAAIAAGFPLENVGRPLNDSEIVRADLPRYTQAEDGIIQGIVTTIDRPFGNIWTNIPRRIIENELRIAYGTNIRVVLDNLLVLEVPFMRTFGDVGLKKPMCYINSRGYFSLAYYGGNLADPYNIRRGMPVKIESITR
modifications: Methanosaeta sp. PtaU1.Bin055
B3: DeoD: PNP from E. coli, SEQ ID NO: 15 (protein, listed as Escherichia coli)
chain: MATPHINAEMGDFADVVLMPGDPLRAKYIAETFLEDAREVNNVRGMLGFTGTYKGRKISVMGHGMGIPSCSIYTKELITDFGVKKIIRVGSCGAVLPHVKLRDVVIGMGACTDSKVNRIRFKDHDFAAIADFDMVRNAVDAAKALGIDARVGNLFSADLFYSPDGEMFDVMEKYGILGVEMEAAGIYGVAAEFGAKALTICTVSDHIRTHEQTTAAERQTTFNDMIKIALESVLLGDKE
B4: FIA^MA37: fluorinase of Streptomyces sp. MA37, SEQ ID NO: 30, accession CDH39444.1 (protein, listed as Streptomyces sp.)
chain: MAANGSQRPIIAFMSDLGTTDDSVAQCKGLMHSICPGVTVVDVCHSMTPWDVEEGARYIVDLPRFFPEGTVFATTTYPATGTTTRSVAVRIRQAAKGGARGQWAGSGDGFERADGSYIYIAPNNGLLTTVLEEHGYIEAYEVTSTKVIPANPEPTFYSREMVAIPSAHLAAGFPLAEVGRRLDDSEIVRFHRPAVEISGEALSGVVTAIDHPFGNIWTNIHRTDLEKAGIGQGKHLKIILDDVLPFEAPLTPTFADAGAIGNIAFYLNSRGYLSLARNAASLAYPYNLKAGLKVRVEAR
modifications: Streptomyces sp. MA37

Tests used:
[1] = Eustaquio et al., 2008; cited from earlier work
[2] = 96-well end-point (1 h) fluorinase activity assay; type: biochemical; conditions: purified enzymes, increasing SAM concentrations, 5′-FDA by HPLC
Protocol: (§1) 96-well activity assays were carried out in 150 μL reactions containing 50 mM HEPES pH 7.8, 75 mM KF, ˜1 μM fluorinase (considering the theoretical molecular mass), and 10, 25, 50, 100, 250, or 500 μM SAM (New England Biolabs). 96-well PCR plates were sealed and incubated for 1 h at 37° C., 5 min at 95° C., and cooled to 10° C. in a thermocycler (Bio-Rad). The plates were then centrifuged for 30 min at 2,500×g and 120 μL of supernatants were transferred to round-bottom 96-well plates (Thermo Scientific), which were sealed with a silicone lid for HPLC analysis. Transhalogenation reactions were carried out in the same way, but using increasing concentrations of 5′-CIDA (5′-chloro-5′-deoxyadenosine) in the presence of 1 mM L-Met.
(§2) 5′-FDA was quantified following absorbance at 230 nm using a Zorbax C18 column (3.5 μm 4.6×100 mm, Agilent) connected to a HPLC system (Dionex Ultimate 3000, ThermoFisher) with the following gradient (1 mL/min flow rate): 5-12% solvent B in 1.5 min, 12% solvent B for 1 min, 12-30% solvent B in 2 min, 30-70% B in 1.5 min (solvent A: 0.05% acetic acid in water; solvent B: acetonitrile). A six-point calibration curve (R2>0.99) was prepared with 0.5-50 μM 5′-FDA, which was chemically synthesized as previously described (Calero et al., 2020).

[3] = type: cell-based, Pseudomonas putida KT2440; conditions: induction with 15 mM NaF, 20 h, 30° C., LC-MS
[4] = Steady-state fluorination kinetics of purified fluorinases (5′-FDA by HPLC); type: biochemical; conditions: 50 mM HEPES, pH 7.8, 75 mM KF, varying SAM, 37° C., triplicate
Protocol: as §1
Steady-state kinetics were performed in the same conditions with slight variations. Triplicate reactions (600 μL final volume) were prepared in 1.5-mL tubes and incubated for 5 min at 37° C. before addition of SAM (1.5625-800 μM), after which 90 μL aliquots were removed at different time-points (2, 5, 10, 15, 20 and 30 minutes), boiled for 5 min at 95° C., and placed on ice. Samples were centrifuged at maximum speed for 10 min at 4° C. before being transferred to 96-well plates for 5′-FDA quantitation by HPLC analysis. Product formation rates for the different substrate concentrations were calculated by least squares linear regression with at least three time-points and fitted to the Michaelis-Menten equation using the Origin software (OriginLab Corporation).
as §2

[5] = Chlorination reaction, KF replaced by KCl; type: biochemical
Source text: Since FlA^PtaU1 was predicted to be a chlorinase, we evaluated whether it was also active towards SN2-dependent addition of Cl^− onto SAM. […] Previous studies have shown that FlA^Scat can also catalyze the chlorination reaction (Deng et al., 2006). However, this feature requires the simultaneous removal of L-Met or 5′-CIDA, the reaction products, since the reverse dehalogenation reaction is favored. We could observe transhalogenation on 5′-CIDA (i.e. 5′-FDA production in the presence of L-Met and F^−, steps III and I in FIG. 20, respectively; see FIG. 29). Again, FlA^PtaU1 catalytically outperformed all other fluorinases, with a 3-fold higher Vmax value. Although we cannot rule out that FlA^PtaU1 could execute de novo chlorination, it is clear that the 23-residue loop reportedly found in «conventional» fluorinases is not essential for the activity towards F^−.

[6] = End-point (1 h) transhalogenation assay; type: biochemical; conditions: 5′-FDA production from 5′-CIDA, 1 mM L-Met, 75 mM KF, 37° C.
Protocol: as §1, §2

[7] = Coupled enzymatic assay, conversion of 5′-FDA into FAld; type: biochemical; conditions: with isomerase^S. cattleya and aldolase^S. coelicolor
Protocol: Coupled isomerase and aldolase activity was monitored by following the consumption of DHAP, through NADH reduction at 340 nm (ε=6220 M^−1 cm^−1) via the activity of a Glycerol-3-Phosphate Dehydrogenase (GPDH, Sigma Aldrich). 5′-FDRP was produced by incubating chemically synthetized 5′-FDA (Calero et al. 2020) at 7.43 mM with 0.5 U Nucleoside Phosphorylase (PNP1, Sigma Aldrich) in 10 mM Tris buffer, for 16 h at 30° C. The assay was carried in 200 μl total volume at 30° C. over a time course of 3 hours. Reaction conditions were 50 mM Tris-HCl Buffer pH7.5, 200 μM NADH, 200 μM 5′-FDRP, 1 U GPDH and 10 μg purified of each enzyme. The reduction of NADH was followed at absorbance 340 nm in a Microtiter Plate reader (BioTek, Elx808).
We used this enzymatic assay with cell-free extracts of cultures of P. putida KT2440::FRS-T7RNAP expressing an isomerase and an aldolase from S. cattleya (isoSc, isomerase^S. cattleya) and S. coelicolor (aldSc, aldolase^S. coelicolor), respectively, that have been previously shown that are able to use fluorinated intermediates (Deng et al., 2008), as well as both an isomerase (isoBt, isomerase^B. thuringiensis) and an aldolase (aldBt) from B. thuringiensis that have been previously described to perform the same reaction with the non-fluorinated metabolites (Beaudoin 2018). […]

| Molecule | Production of 5′-FDA in vivo [3] | Km [4] [µM] | kcat [4] [s⁻¹] | further results |
| --- | --- | --- | --- | --- |
| B1 |  |  |  | activity on F^− [1]: inactive on F^− |
| B2 | could be detected | 6.99 ± 1.06 | 0.00683 ± 0.00017 | 5′-FDA synthase activity [2]: one of the top performers; intracellular 5′-FDA, fold higher with respect to the other three fluorinase genes [3]: 6- to 12 fold; 5′-CIDA accumulation [5]: no 5′-CIDA accumulation could be detected; Vmax, fold higher than all other fluorinases [6]: 3 fold |
| B3 |  |  |  | conversion of 5′-FDA into FAld [7]: conversion was higher |
| B4 | could be detected | 4.42 ± 0.58 | 0.00267 ± 0.00017 |  |
